Data on 19 molecules can be found in patent US20260008818A1, “CYCLIC PEPTIDE OR SALT THEREOF, AND USES THEREOF” (FUJIFILM Corporation, priority 2023, published 2026).

Data set [1] is described as follows: Molecular stability of cyclic peptide after reducing agent (DTT) treatment, LC. Type of data set: physicochemical. The settings on record: residual rate after 12.6 mmol/L DTT aqueous solution, room temperature, 1 hour. Here is the method: The molecular stability of the cyclic peptide was evaluated by analyzing an aqueous solution of the cyclic peptide treated with a reducing agent by liquid chromatography (LC).
The reducing agent treatment was performed under the following conditions based on the concentration of glutathione contained in the cells. 25 μL of a 0.2 mg/mL cyclic peptide aqueous solution was prepared, 58.8 μL of a 12.6 mmol/L DTT aqueous solution was added to the aqueous solution, and the mixture was incubated at room temperature for 1 hour to obtain an aqueous solution of the cyclic peptide treated with a reducing agent. The DTT aqueous solution was used by diluting a 1 mol/L (+-)-dithiothreitol (DTT) solution (FUJIFILM Wako Pure Chemical Corporation, 044-33871) with water. The total area of all the peaks in LC/MS of the cyclic peptide before the reducing agent treatment was set to 100%, and the proportion of the total area of all the peaks in LC/MS of the aqueous solution of the cyclic peptide treated with the reducing agent was determined to calculate the residual rate of the cyclic peptide, and the molecular stability was evaluated according to the following evaluation criteria. The evaluation result preferably satisfies the evaluation criteria A, B, or C.
• A: The residual rate of cyclic peptide is 90% or more. • B: The residual rate of the cyclic peptide is 70% or more and less than 90% • C: The residual rate of the cyclic peptide is 50% or more and less than 70% • D: The residual rate of the cyclic peptide is less than 50%
The LC used for the evaluation of molecular stability was set to the following conditions. • LC device: Prominence series (pump, column oven, autosampler, detector) (manufactured by Shimadzu Corporation) • Detector: photodiode array detector (SPD-M20A), measurement wavelength of 280 nm • Column: TSKgel ODS-100V, inner diameter of 4.6 mm×length of 150 mm, particle diameter of 5 μm (manufactured by Tosoh Corporation) • Eluent A: solution containing 0.1% trifluoroacetic acid as solute, and solvent is 100% water • Eluent B: solution containing 0.1% trifluoroacetic acid as solute, and solvent is 100% acetonitrile • Flow rate: 1.0 mL/min • Injection amount: 25 μL • Gradient: 20% to 50%: Eluent B (0 to 15 minutes), 100%: Eluent B (15 minutes) • Column temperature: 40° C.

Data set [2] concerns Recombinant Human FGFR 1 alpha (IIIc) Fc Chimera Protein. Description: Binding affinity of chemically synthesized cyclic peptide to immobilized FGFR by SPR. The conditions noted are these: 10 nmol/L cyclic peptide, 25° C., binding amount per one molecule of FGFR, chemically synthesized product. Here is the method:
The binding affinity of the cyclic peptide to FGFR was evaluated using a surface plasmon resonance (SPR) method.
(§1) A CM5 sensor chip (Cytiva, 29149603) was set in Biacore-T200 (manufactured by Cytiva) which is a surface plasmon resonance device, and an HBS-EP buffer (Cytiva, BR100826) was added as a running buffer at a flow rate of 10 μL/min to equilibrate the flow channel. Next, 70 μL of a mixed aqueous solution of 0.2 mol/L 1-(3-dimethylaminopropyl)-3-ethylcarbodiimide (EDC) and 0.05 mol/L N-hydroxysuccinimide (NHS) was added to activate the sensor chip. Then, Recombinant Human FGFR 1 alpha (IIIc) Fc Chimera Protein CF (R&D systems, 658-FR-050) prepared at 50 nmol/L in an Acetate 4.5 buffer (Cytiva, BR100350) was added thereto to perform immobilization at about 5000 RU. Thereafter, the blocking treatment was performed with an ethanolamine solution. In addition, in another flow channel of the same sensor chip, blocking treatment was performed immediately after activation without immobilizing FGFR.
(§2) A cyclic peptide diluted to 10 nmol/L using HBS-EP was added to each flow channel of the FGFR-immobilized sensor chip produced above at 25° C. for 10 minutes, then HBS-EP was allowed to flow as a running buffer for 30 minutes, and the binding of the cyclic peptide to FGFR was measured. Thereafter, a regeneration treatment of removing the bound cyclic peptide was performed by repeating the flow of a regeneration liquid in which sodium chloride powder was dissolved in Glysine 1.5 (Cytiva, BR100354) to a final concentration of 0.15 mol/L for 1 minute in each flow channel twice. The binding amount of the cyclic peptide was evaluated from the difference between the measured value of Biacore-T200 in the flow channel in which FGFR was immobilized and the measured value of Biacore-T200 in the flow channel in which FGFR was not immobilated, in a case where a 10 nmol/L cyclic peptide was allowed to flow.
The binding amount of the cyclic peptide evaluated above was normalized to the binding amount of the cyclic peptide molecules per one molecule of FGFR using the molecular weights of the cyclic peptide and FGFR, and the binding affinity to FGFR was evaluated according to the following evaluation criteria. The evaluation result preferably satisfies the evaluation criteria A, B, or C.
• A: The binding amount is 0.7 molecules of the cyclic peptide/one molecule of FGFR or more. • B: The binding amount is 0.5 molecules of the cyclic peptide/one molecule of FGFR or more and less than 0.7 molecules of cyclic peptide/one molecule of FGFR. • C: The binding amount is 0.1 molecules of cyclic peptide/one molecule of FGFR or more and less than 0.5 molecules of cyclic peptide/one molecule of FGFR. • D: The binding amount is less than 0.1 molecules of the cyclic peptide/one molecule of FGFR.
(Surface plasmon resonance follows binding to a sensor surface in real time, without labels.)

Data set [3] addresses T1, Recombinant Human FGFR1 alpha (IIIc) Fc Chimera Protein, CF (R&D systems, 658-FR-050) (human, UniProt P11362 22-376).
T1 construct: bought reagent; not shown: Fc of the bought chimera
T1 sequence (looked up): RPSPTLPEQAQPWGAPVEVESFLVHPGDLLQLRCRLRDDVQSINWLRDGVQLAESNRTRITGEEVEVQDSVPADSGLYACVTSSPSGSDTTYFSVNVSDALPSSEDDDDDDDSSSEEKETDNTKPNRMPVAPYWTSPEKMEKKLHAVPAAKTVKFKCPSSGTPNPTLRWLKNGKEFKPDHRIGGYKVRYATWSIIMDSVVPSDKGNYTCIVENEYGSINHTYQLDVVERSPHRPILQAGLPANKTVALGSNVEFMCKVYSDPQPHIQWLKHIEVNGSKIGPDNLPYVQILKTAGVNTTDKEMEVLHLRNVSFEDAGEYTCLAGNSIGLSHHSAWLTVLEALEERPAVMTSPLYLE
The experiment in a line: SPR, FGFR1-Fc immobilized, 10 nmol/L peptide. The procedure: as §1, §2

Bridge positions count the residues as written; N and C are the ends. Square brackets hold non-standard residues; d marks the D form. Ends that are not written are not given here. NMeL = CN[C@@H](CC(C)C)C(=O)O; hCys = N[C@@H](CCS)C(=O)O; Orn = NCCC[C@H](N)C(=O)O; Dab = NCC[C@H](N)C(=O)O; Dap = NC[C@H](N)C(=O)O Bounds are passed on as bounds.

On to “374 (HXSYERLQFHGHEAPFRVKVKKK; not fully specified; Description of Artificial Sequence: Cyclic peptide) [compound 374]”, for which, in data set [1], the “Evaluation result of reductive stability” value is listed as “A (The residual rate of cyclic peptide is 90% or more.)”. Further, the “Evaluation result of binding affinity to FGFR” value in data set [2] was “A (The binding amount is 0.7 molecules of the cyclic peptide/one molecule of FGFR or more.)”. The like results for “389 (H[Orn]SYERLIFHGHEAPFWV[hCys]KKK; bridge 2-19; not fully specified (residue 2, bridges); printed as H-(Orn(acetyl))-SYERLIFHGHEAPFWV-(Hcy)-KKK) [compound 389]” were, in that order, “A (The residual rate of cyclic peptide is 90% or more.)” and “A (The binding amount is 0.7 molecules of the cyclic peptide/one molecule of FGFR or more.)”. On to “387 (H[Orn]SYER[NMeL]IFHGHEAPFWV[hCys]VKKK; bridge 2-19; not fully specified (residue 2, bridges)) [compound 387]”, for which the “Evaluation result of reductive stability” value in data set [1] is recorded as “A (The residual rate of cyclic peptide is 90% or more.)”. The “Evaluation result of binding affinity to FGFR” value in data set [2] is reported as “A (The binding amount is 0.7 molecules of the cyclic peptide/one molecule of FGFR or more.)”.

As to “383 (HCSYERLQFHGHEAPFRVCVKKK; disulfide 2-19) [compound 383]”, the “Evaluation result of reductive stability” value in data set [1] is given as “D (The residual rate of the cyclic peptide is less than 50%)”.

B1: SEQ ID NO: 388 (peptide)
peptide: HXSYERXIFHGHEAPFWVXVKKK
modifications: not fully specified; Hle (homoleucine); Orn(acetyl); Hcy; thioether ring (Orn(acetyl))-(Hcy)
notes: chemically synthesized
As to B1, the “binding amount (SPR, cyclic peptide molecules bound per one molecule of FGFR at 10 nmol/L peptide)” value in data set [3] is ≥ 0.7 moleculesofthecyclicpeptide/onemoleculeoffgfr.

B2: SEQ ID NO: 378 (peptide)
peptide: HKSYERLQFHGHEAPFRV[hCys]VKKK
modifications: bridge 2-19; not fully specified (residue 2, bridges); printed as H-(K(acetyl))-SYERLQFHGHEAPFRV-(Hcy)-VKKK
notes: chemically synthesized
With B2, the “binding amount (SPR, cyclic peptide molecules bound per one molecule of FGFR at 10 nmol/L peptide)” value in data set [3] is ≥ 0.7 moleculesofthecyclicpeptide/onemoleculeoffgfr.

B3: SEQ ID NO: 381 (peptide)
peptide: H[Dap]SYERLQFHGHEAPFRV[hCys]VKKK
modifications: bridge 2-19; not fully specified (residue 2, bridges); printed as H-(Dap(acetyl))-SYERLQFHGHEAPFRV-(Hcy)-VKKK
notes: chemically synthesized
For B3, the “binding amount (SPR, cyclic peptide molecules bound per one molecule of FGFR at 10 nmol/L peptide)” value in data set [3] is ≥ 0.7 moleculesofthecyclicpeptide/onemoleculeoffgfr.

B4: SEQ ID NO: 377 (peptide)
peptide: H[hCys]SYERLQFHGHEAPFRV[Dap]VKKK
modifications: bridge 2-19; not fully specified (residue 19, bridges); printed as H-(Hcy)-SYERLQFHGHEAPFRV-(Dap(acetyl))-VKKK
notes: chemically synthesized
With B4, the “binding amount (SPR, cyclic peptide molecules bound per one molecule of FGFR at 10 nmol/L peptide)” value in data set [3] was ≥ 0.7 moleculesofthecyclicpeptide/onemoleculeoffgfr.

B5: SEQ ID NO: 379 (peptide)
peptide: HXSYERLQFHGHEAPFRVXVKKK
modifications: not fully specified; Orn(acetyl); Hcy; thioether ring (Orn(acetyl))-(Hcy)
notes: chemically synthesized
For the molecule B5, the “binding amount (SPR, cyclic peptide molecules bound per one molecule of FGFR at 10 nmol/L peptide)” value in data set [3] is ≥ 0.7 moleculesofthecyclicpeptide/onemoleculeoffgfr.

B6: SEQ ID NO: 375 (peptide)
peptide: H[hCys]SYERLQFHGHEAPFRV[Orn]VKKK
modifications: bridge 2-19; not fully specified (residue 19, bridges); printed as H-(Hcy)-SYERLQFHGHEAPFRV-(Orn(acetyl))-VKKK
notes: chemically synthesized
B6: in data set [3], the “binding amount (SPR, cyclic peptide molecules bound per one molecule of FGFR at 10 nmol/L peptide)” value was ≥ 0.7 moleculesofthecyclicpeptide/onemoleculeoffgfr.

B7: SEQ ID NO: 387 (peptide)
peptide: HXSYERLIFHGHEAPFWVXVKKK
modifications: not fully specified; meL (N-methyl leucine); Orn(acetyl); Hcy; thioether ring (Orn(acetyl))-(Hcy)
notes: chemically synthesized
On to B7, for which the “binding amount (SPR, cyclic peptide molecules bound per one molecule of FGFR at 10 nmol/L peptide)” value in data set [3] was ≥ 0.7 moleculesofthecyclicpeptide/onemoleculeoffgfr.

B8: SEQ ID NO: 384 (peptide)
peptide: HXSYERLIFHGHEAPFWVXVKKK
modifications: not fully specified; Orn(acetyl); Hcy; thioether ring (Orn(acetyl))-(Hcy)
notes: chemically synthesized
For B8, in data set [3], the “binding amount (SPR, cyclic peptide molecules bound per one molecule of FGFR at 10 nmol/L peptide)” value is ≥ 0.7 moleculesofthecyclicpeptide/onemoleculeoffgfr.

B9: SEQ ID NO: 390 (peptide)
peptide: XSYERLIFHGHEAPFWVXVKKK
modifications: not fully specified; Orn(acetyl); Hcy; thioether ring (Orn(acetyl))-(Hcy)
notes: chemically synthesized
In the case of B9, the “binding amount (SPR, cyclic peptide molecules bound per one molecule of FGFR at 10 nmol/L peptide)” value in data set [3] was 0.1 to 0.5 moleculesofthecyclicpeptide/onemoleculeoffgfr.

B10: SEQ ID NO: 389 (peptide)
peptide: HXSYERLIFHGHEAPFWVXKKK
modifications: not fully specified; Orn(acetyl); Hcy; thioether ring (Orn(acetyl))-(Hcy)
notes: chemically synthesized
Turning to B10, the “binding amount (SPR, cyclic peptide molecules bound per one molecule of FGFR at 10 nmol/L peptide)” value in data set [3] is ≥ 0.7 moleculesofthecyclicpeptide/onemoleculeoffgfr.

B11: SEQ ID NO: 374 (peptide)
peptide: H[hCys]SYERLQFHGHEAPFRVKVKKK
modifications: bridge 2-19; not fully specified (residue 19, bridges); printed as H-(Hcy)-SYERLQFHGHEAPFRV-(K(acetyl))-VKKK
notes: chemically synthesized
With B11, the “binding amount (SPR, cyclic peptide molecules bound per one molecule of FGFR at 10 nmol/L peptide)” value in data set [3] is ≥ 0.7 moleculesofthecyclicpeptide/onemoleculeoffgfr.

B12: SEQ ID NO: 385 (peptide)
peptide: XSYERLIFHGHEAPFWVXKKK
modifications: not fully specified; Orn(acetyl); Hcy; thioether ring (Orn(acetyl))-(Hcy)
notes: chemically synthesized
Consider B12, for which the “binding amount (SPR, cyclic peptide molecules bound per one molecule of FGFR at 10 nmol/L peptide)” value in data set [3] was 0.1 to 0.5 moleculesofthecyclicpeptide/onemoleculeoffgfr.

B13: SEQ ID NO: 376 (peptide)
peptide: H[hCys]SYERLQFHGHEAPFRV[Dab]VKKK
modifications: bridge 2-19; not fully specified (residue 19, bridges); printed as H-(Hcy)-SYERLQFHGHEAPFRV-(Dab(acetyl))-VKKK
notes: chemically synthesized
Take B13: in data set [3], the “binding amount (SPR, cyclic peptide molecules bound per one molecule of FGFR at 10 nmol/L peptide)” value was ≥ 0.7 moleculesofthecyclicpeptide/onemoleculeoffgfr.

B14: SEQ ID NO: 386 (peptide)
peptide: Ac-HASYERLIFHGHEAPFWVCVKKK
modifications: bridge N-19; not fully specified; printed as (Ac)-HASYERLIFHGHEAPFWV-(C)-VKKK
notes: chemically synthesized
Consider B14, for which the “binding amount (SPR, cyclic peptide molecules bound per one molecule of FGFR at 10 nmol/L peptide)” value in data set [3] is 0.5 to 0.7 moleculesofthecyclicpeptide/onemoleculeoffgfr.

B15: SEQ ID NO: 380 (peptide)
peptide: H[Dab]SYERLQFHGHEAPFRV[hCys]VKKK
modifications: bridge 2-19; not fully specified (residue 2, bridges); printed as H-(Dab(acetyl))-SYERLQFHGHEAPFRV-(Hcy)-VKKK
notes: chemically synthesized
In the case of B15, the “binding amount (SPR, cyclic peptide molecules bound per one molecule of FGFR at 10 nmol/L peptide)” value in data set [3] is ≥ 0.7 moleculesofthecyclicpeptide/onemoleculeoffgfr.
